T1: Rvs167 SH3 (RV167_YEAST), P39743
T1 chain: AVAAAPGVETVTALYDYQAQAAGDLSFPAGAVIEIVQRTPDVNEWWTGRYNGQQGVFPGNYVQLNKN

T2: Yhr016c SH3 (YSC84_YEAST), P32793
T2 chain: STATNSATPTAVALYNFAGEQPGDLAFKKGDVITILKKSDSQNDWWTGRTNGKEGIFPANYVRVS

T3: Boi2 SH3 (BOI2_YEAST), P39969
T3 chain: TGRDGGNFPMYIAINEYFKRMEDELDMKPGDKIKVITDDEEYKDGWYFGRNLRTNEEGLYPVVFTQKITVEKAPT

T4: Yfr024 SH3 (LSB3_YEAST), P43603
T4 chain: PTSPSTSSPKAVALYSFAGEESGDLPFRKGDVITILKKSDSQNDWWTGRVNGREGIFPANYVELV

T5: Boi1 SH3 (BOI1_YEAST), P38041
T5 chain: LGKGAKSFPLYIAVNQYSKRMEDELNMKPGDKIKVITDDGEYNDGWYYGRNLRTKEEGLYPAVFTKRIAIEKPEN


What was measured:
Experiment in all cases: SPOT array
[1] = target: T1, Rvs167 SH3 (RV167_YEAST), P39743
[2] = target: T2, Yhr016c SH3 (YSC84_YEAST), P32793
[3] = target: T3, Boi2 SH3 (BOI2_YEAST), P39969
[4] = target: T4, Yfr024 SH3 (LSB3_YEAST), P43603
[5] = target: T5, Boi1 SH3 (BOI1_YEAST), P38041

Row | normalised SPOT signal, Boehringer light units (BLU); mean over the file's lines of this peptide [1] | normalised SPOT signal, Boehringer light units (BLU); mean over the file's lines of this peptide [2] | normalised SPOT signal, Boehringer light units (BLU); mean over the file's lines of this peptide [3] | normalised SPOT signal, Boehringer light units (BLU); mean over the file's lines of this peptide [4] | normalised SPOT signal, Boehringer light units (BLU); mean over the file's lines of this peptide [5] | Binder
1 | 22.1 | 266 | 31.7 | 19.8 | 25.2 | GHTPQFPTKDEVSS [YNR031C 1516-1529]
2 | 36.2 | 49 | 29.6 | 0.8 | 115 | GNVPHSPVRFADTV [YJR025C 93-106]
3 | 38.7 | 153 | 41 | 103 | 115 | GIKPQQPIKVDIKG [YPL105C 573-586]
4 | 57.3 | 318 | 30.8 | 1660 | 115 | GILPLAPLRPLDPL [YPL085W 915-928]
5 | 31.8 | 160 | 42.2 | 268 | 147 | GRKPKDPSKPRQML [YML065W 331-344]
6 | 33 | 37.9 | 25.3 | 53.6 | 57.5 | GSEPIDPSKLEFAR [YLR191W 299-312]
7 | 58.8 | 283 | 84.6 | 1870 | 58.2 | GVPPNFPQRMMPPP [YKL204W 471-484]
8 | 4 | 116 | 97.9 | 269 | 64.4 | GVFPNSPVKQTTII [YPL023C 580-593]
9 | 3120 | 2360 | 55.8 | 6370 | 10300 | GPAPPPPPRASRPT [YOR181W 384-397]
10 | 73 | 296 | 85.3 | 1430 | 242 | GKVPVQPRKRKSIT [YKL062W 547-560]
11 | 197 | 2770 | 36 | 5740 | 97.3 | GTPPTTPLRTAQGI [YOR025W 379-392]
12 | 24.6 | 154 | 114 | 331 | 69.6 | GIHPGFPIRMVQYA [YPL025C 36-49]

The remaining lines, values behind:

Row | Binder | normalised SPOT signal, Boehringer light units (BLU); mean over the file's lines of this peptide [1] | normalised SPOT signal, Boehringer light units (BLU); mean over the file's lines of this peptide [2] | normalised SPOT signal, Boehringer light units (BLU); mean over the file's lines of this peptide [3] | normalised SPOT signal, Boehringer light units (BLU); mean over the file's lines of this peptide [4] | normalised SPOT signal, Boehringer light units (BLU); mean over the file's lines of this peptide [5]
13 | GSSPVSPDKRPSWK [YGL156W 66-79] | 50.3 | 493 | 18.6 | 223 | 69.6
14 | GPPPAMPARPTATT [YBL007C 192-205] | 83.3 | 1070 | 140 | 11500 | 86.8
15 | GRHPDMPTRVKNAY [YDR188W 219-232] | 148 | 152 | 44.5 | 768 | 104
16 | GSNPDLPNKSNLKF [YGR080W 307-320] | 26.2 | 180 | 38.5 | 637 | 163
17 | GITPVGPGKFSRSA [YEL050C 256-269] | 32.3 | 81.1 | 55.7 | 21.5 | 21.6
18 | GLEPNTPLKSIKVD [YGL009C 340-353] | 59.1 | 47.7 | 58.9 | 68.2 | 55.1
19 | GNIPVFPAKFGIQF [YAL010C 476-489] | 50.1 | 212 | 59.2 | 1730 | 46.1
20 | GVYPSRPEKTYDYS [YBR026C 71-84] | 12.9 | 113 | 47.3 | 470 | 111
21 | GNTPDAPKRGFLGY [YDL245C 44-57] | 37.1 | 230 | 27.7 | 658 | 86.5
22 | GRIPQLPNRDEMTA [YCR073C 1268-1281] | 11900 | 20900 | 54.1 | 11500 | 78.4
